In patent US6482933 (Takeda / Millennium, dated 2002):

Molecular target: T1, CARD-4L epitope tagged with HA (pCI-CARD-4LcHA) (human, UniProt Q9Y239 1-953)
T1 construct: Expressed in 293T cells from pCI; in cell lysate
T1 sequence: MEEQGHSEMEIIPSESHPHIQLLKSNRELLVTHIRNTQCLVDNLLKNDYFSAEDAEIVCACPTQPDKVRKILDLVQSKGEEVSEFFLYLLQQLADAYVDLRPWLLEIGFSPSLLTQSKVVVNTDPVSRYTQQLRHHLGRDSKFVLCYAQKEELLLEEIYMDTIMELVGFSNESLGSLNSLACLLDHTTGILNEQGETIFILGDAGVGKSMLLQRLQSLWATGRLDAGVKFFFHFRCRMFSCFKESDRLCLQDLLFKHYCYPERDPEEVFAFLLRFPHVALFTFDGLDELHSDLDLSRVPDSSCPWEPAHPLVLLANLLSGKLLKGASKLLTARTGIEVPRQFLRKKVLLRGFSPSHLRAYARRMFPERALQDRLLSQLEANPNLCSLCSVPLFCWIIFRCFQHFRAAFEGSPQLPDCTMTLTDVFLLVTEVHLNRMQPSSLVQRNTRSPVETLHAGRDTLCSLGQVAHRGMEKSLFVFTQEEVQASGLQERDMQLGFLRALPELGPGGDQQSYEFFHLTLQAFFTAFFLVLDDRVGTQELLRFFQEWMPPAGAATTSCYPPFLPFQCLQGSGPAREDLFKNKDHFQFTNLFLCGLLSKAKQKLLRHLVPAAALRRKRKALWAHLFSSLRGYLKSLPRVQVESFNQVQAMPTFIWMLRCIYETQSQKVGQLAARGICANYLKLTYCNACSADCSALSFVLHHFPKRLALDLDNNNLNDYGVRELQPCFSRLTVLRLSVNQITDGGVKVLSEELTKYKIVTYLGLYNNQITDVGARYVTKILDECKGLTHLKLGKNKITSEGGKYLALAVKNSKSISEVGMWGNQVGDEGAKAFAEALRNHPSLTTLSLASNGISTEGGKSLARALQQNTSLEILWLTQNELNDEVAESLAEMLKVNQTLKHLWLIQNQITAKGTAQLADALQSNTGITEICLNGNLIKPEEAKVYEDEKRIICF
Assay: coimmunoprecipitation from cotransfected 293T cells (anti-MYC IP, anti-HA Western blot)
Experimental: Cells from each transfected line were lysed and an immunoprecipitation procedure was carried out on each lysate with an anti-MYC epitope tag antibody to precipitate the CARD-4LcHA expressed by each cell line and any physically associated proteins.

B1: CARD-3 lacking the CARD domain (SEQ ID NO:6) epitope tagged with MYC (pCI-CARD3noCARDnMYC) (other, not shown: small tags and cut ends)
chain: MNGEAICSALPTIPYHKLADLRYLSRGASGTVSSARHADWRVQVAVKHLHIHTPLLDSERKDVLREAEILHKARFSYILPILGICNEPEFLGIVTEYMPNGSLNELLHRKTEYPDVAWPLRFRILHEIALGVNYLHNMTPPLLHHDLKTQNILLDNEFHVKIADFGLSKWRMMSLSQSRSSKSAPEGGTIIYMPPENYEPGQKSRASIKHDIYSYAVITWEVLSRKQPFEDVTNPLQIMYSVSQGHRPVINEESLPYDIPHRARMISLIESGWAQNPDERPSFLKCLIELEPVLRTFEEITFLEAVIQLKKTKLQSVSSAIHLCDKKKMELSLNIPVNHGPQEESCGSSQLHENSGSPETSRSLPAPQDNDFLSRKAQDCYFMKLHHCPGNHSWDSTISGSQRAAFCDHKTIPCSSAIINPLSTAGNSERL
notes: also called CARD-3 lacking its CARD domain
B1: no binding.
